Patent publication US20170101454A1 (Novo Nordisk, published 2017)
Starred links: 1 amine or outer side, 2 acyl side, 3 side chain; linkers in the order of their positions; H or OH if unused. Non-standard residues stand in square brackets, D forms with d. Groups on a side chain read outwards from the residue. No end group written: not given here. *: point of attachment. C18 diacid = O=C(O)CCCCCCCCCCCCCCCCC(=O)*; γGlu = O=C(O)[C@H](CCC(=O)[*:2])N[*:1]; Ac4c = NC1(C(=O)O)CCC1; AEEA = NCCOCCOCC(=O)O; Aib = CC(C)(N)C(=O)O

What was measured:
human GLP-1 receptor [1] = molecular target: T1, human GLP-1 receptor (human, UniProt P43220 24-463); assay: displacement of [125I]-GLP-1-(7-36)NH2 from BHK membranes with human GLP-1R, SPA, no serum albumin
T1 construct: whole, on cells; reporter assay used whole cells

human glucagon receptor [2] = molecular target: T2, human glucagon receptor (human, UniProt P47871 26-477); assay: displacement of [125I]-glucagon from BHK membranes with human glucagon receptor, SPA, no serum albumin
T2 construct: whole, on cells; reporter assay used whole cells; also called hGCGR
T2 sequence (P47871 26-477): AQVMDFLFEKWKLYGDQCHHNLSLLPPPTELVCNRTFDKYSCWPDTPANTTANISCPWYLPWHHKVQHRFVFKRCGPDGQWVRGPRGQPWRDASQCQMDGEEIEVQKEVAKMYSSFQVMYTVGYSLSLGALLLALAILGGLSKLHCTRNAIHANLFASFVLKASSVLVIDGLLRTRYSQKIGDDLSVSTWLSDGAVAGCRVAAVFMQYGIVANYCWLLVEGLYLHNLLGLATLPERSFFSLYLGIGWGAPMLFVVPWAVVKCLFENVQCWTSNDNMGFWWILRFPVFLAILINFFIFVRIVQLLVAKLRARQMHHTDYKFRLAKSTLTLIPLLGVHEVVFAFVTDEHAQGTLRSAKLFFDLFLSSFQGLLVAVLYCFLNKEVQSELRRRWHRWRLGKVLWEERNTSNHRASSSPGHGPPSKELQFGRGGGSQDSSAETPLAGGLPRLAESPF

human glucagon receptor [3] = molecular target: T2, human glucagon receptor; assay: cell-based or functional assay
human GLP-1 receptor [4] = molecular target: T1, human GLP-1 receptor; assay: cell-based or functional assay

IC50 (human GLP-1 receptor [1]) [nM] | IC50 (human glucagon receptor [2]) [nM] | GlucagonR EC50 (pM), [Assay (I)(b)], CRE luciferase reporter, BHK cells (human glucagon receptor [3]) [pM] | GLP-1R EC50 (pM) [Assay (I)(a)], CRE luciferase reporter, BHK cells (human GLP-1 receptor [4]) [pM] | Binder
2.2 | 60 |  |  | H[Aib]QGTFTSDYSKYLESRRAQDFVAWLISK([γGlu-γGlu-AEEA-AEEA-γGlu-C18 diacid])-NH2 (N-terminus assumed; SMILES CC[C@H](C)[C@H](NC(=O)[C@H](CC(C)C)NC(=O)[C@H](Cc1c[nH]c2ccccc12)NC(=O)[C@H](C)NC(=O)[C@@H](NC(=O)[C@H](Cc1ccccc1)NC(=O)[C@H](CC(=O)O)NC(=O)[C@H](CCC(N)=O)NC(=O)[C@H](C)NC(=O)[C@H](CCCNC(=N)N)NC(=O)[C@H](CCCNC(=N)N)NC(=O)[C@H](CO)NC(=O)[C@H](CCC(=O)O)NC(=O)[C@H](CC(C)C)NC(=O)[C@H](Cc1ccc(O)cc1)NC(=O)[C@H](CCCCN)NC(=O)[C@H](CO)NC(=O)[C@H](Cc1ccc(O)cc1)NC(=O)[C@H](CC(=O)O)NC(=O)[C@H](CO)NC(=O)[C@@H](NC(=O)[C@H](Cc1ccccc1)NC(=O)[C@@H](NC(=O)CNC(=O)[C@H](CCC(N)=O)NC(=O)C(C)(C)NC(=O)[C@@H](N)Cc1c[nH]cn1)[C@@H](C)O)[C@@H](C)O)C(C)C)C(=O)N[C@@H](CO)C(=O)N[C@@H](CCCCNC(=O)CC[C@H](NC(=O)CC[C@H](NC(=O)COCCOCCNC(=O)COCCOCCNC(=O)CC[C@H](NC(=O)CCCCCCCCCCCCCCCCC(=O)O)C(=O)O)C(=O)O)C(=O)O)C(N)=O)
1 | 64.7 |  |  | H[Aib]QGTFTSDLSKYLDLRRARDFVQWLISK([γGlu-γGlu-AEEA-AEEA-γGlu-C18 diacid])-NH2 (N-terminus assumed; SMILES CC[C@H](C)[C@H](NC(=O)[C@H](CC(C)C)NC(=O)[C@H](Cc1c[nH]c2ccccc12)NC(=O)[C@H](CCC(N)=O)NC(=O)[C@@H](NC(=O)[C@H](Cc1ccccc1)NC(=O)[C@H](CC(=O)O)NC(=O)[C@H](CCCNC(=N)N)NC(=O)[C@H](C)NC(=O)[C@H](CCCNC(=N)N)NC(=O)[C@H](CCCNC(=N)N)NC(=O)[C@H](CC(C)C)NC(=O)[C@H](CC(=O)O)NC(=O)[C@H](CC(C)C)NC(=O)[C@H](Cc1ccc(O)cc1)NC(=O)[C@H](CCCCN)NC(=O)[C@H](CO)NC(=O)[C@H](CC(C)C)NC(=O)[C@H](CC(=O)O)NC(=O)[C@H](CO)NC(=O)[C@@H](NC(=O)[C@H](Cc1ccccc1)NC(=O)[C@@H](NC(=O)CNC(=O)[C@H](CCC(N)=O)NC(=O)C(C)(C)NC(=O)[C@@H](N)Cc1c[nH]cn1)[C@@H](C)O)[C@@H](C)O)C(C)C)C(=O)N[C@@H](CO)C(=O)N[C@@H](CCCCNC(=O)CC[C@H](NC(=O)CC[C@H](NC(=O)COCCOCCNC(=O)COCCOCCNC(=O)CC[C@H](NC(=O)CCCCCCCCCCCCCCCCC(=O)O)C(=O)O)C(=O)O)C(=O)O)C(N)=O)
0.3 | 83.2 |  |  | H[Aib]QGTFTSDLSKYLDLRRARDFVQWLINK([γGlu-γGlu-AEEA-AEEA-γGlu-C18 diacid])-NH2 (N-terminus assumed; SMILES CC[C@H](C)[C@H](NC(=O)[C@H](CC(C)C)NC(=O)[C@H](Cc1c[nH]c2ccccc12)NC(=O)[C@H](CCC(N)=O)NC(=O)[C@@H](NC(=O)[C@H](Cc1ccccc1)NC(=O)[C@H](CC(=O)O)NC(=O)[C@H](CCCNC(=N)N)NC(=O)[C@H](C)NC(=O)[C@H](CCCNC(=N)N)NC(=O)[C@H](CCCNC(=N)N)NC(=O)[C@H](CC(C)C)NC(=O)[C@H](CC(=O)O)NC(=O)[C@H](CC(C)C)NC(=O)[C@H](Cc1ccc(O)cc1)NC(=O)[C@H](CCCCN)NC(=O)[C@H](CO)NC(=O)[C@H](CC(C)C)NC(=O)[C@H](CC(=O)O)NC(=O)[C@H](CO)NC(=O)[C@@H](NC(=O)[C@H](Cc1ccccc1)NC(=O)[C@@H](NC(=O)CNC(=O)[C@H](CCC(N)=O)NC(=O)C(C)(C)NC(=O)[C@@H](N)Cc1c[nH]cn1)[C@@H](C)O)[C@@H](C)O)C(C)C)C(=O)N[C@@H](CC(N)=O)C(=O)N[C@@H](CCCCNC(=O)CC[C@H](NC(=O)CC[C@H](NC(=O)COCCOCCNC(=O)COCCOCCNC(=O)CC[C@H](NC(=O)CCCCCCCCCCCCCCCCC(=O)O)C(=O)O)C(=O)O)C(=O)O)C(N)=O)
0.9 | 71.2 |  |  | H[Aib]QGTFTSDLSKYLDLRRAREFVQWLISK([γGlu-γGlu-AEEA-AEEA-γGlu-C18 diacid])-NH2 (N-terminus assumed; SMILES CC[C@H](C)[C@H](NC(=O)[C@H](CC(C)C)NC(=O)[C@H](Cc1c[nH]c2ccccc12)NC(=O)[C@H](CCC(N)=O)NC(=O)[C@@H](NC(=O)[C@H](Cc1ccccc1)NC(=O)[C@H](CCC(=O)O)NC(=O)[C@H](CCCNC(=N)N)NC(=O)[C@H](C)NC(=O)[C@H](CCCNC(=N)N)NC(=O)[C@H](CCCNC(=N)N)NC(=O)[C@H](CC(C)C)NC(=O)[C@H](CC(=O)O)NC(=O)[C@H](CC(C)C)NC(=O)[C@H](Cc1ccc(O)cc1)NC(=O)[C@H](CCCCN)NC(=O)[C@H](CO)NC(=O)[C@H](CC(C)C)NC(=O)[C@H](CC(=O)O)NC(=O)[C@H](CO)NC(=O)[C@@H](NC(=O)[C@H](Cc1ccccc1)NC(=O)[C@@H](NC(=O)CNC(=O)[C@H](CCC(N)=O)NC(=O)C(C)(C)NC(=O)[C@@H](N)Cc1c[nH]cn1)[C@@H](C)O)[C@@H](C)O)C(C)C)C(=O)N[C@@H](CO)C(=O)N[C@@H](CCCCNC(=O)CC[C@H](NC(=O)CC[C@H](NC(=O)COCCOCCNC(=O)COCCOCCNC(=O)CC[C@H](NC(=O)CCCCCCCCCCCCCCCCC(=O)O)C(=O)O)C(=O)O)C(=O)O)C(N)=O)
 | 2.7 | 13 | 5 | H[Ac4c]QGTFTSDLSKYLESRRAREFVQWLIK([Gly-Ser-Glu-Gly-Ser-γGlu-γGlu-C18 diacid])T-NH2 (also called Chem. 16; Chem 16)
0.3 | 67.3 |  |  | H[Aib]QGTFTSDLSKYLDLRRAREFVQWLINK([γGlu-γGlu-AEEA-AEEA-γGlu-C18 diacid])-NH2 (N-terminus assumed; SMILES CC[C@H](C)[C@H](NC(=O)[C@H](CC(C)C)NC(=O)[C@H](Cc1c[nH]c2ccccc12)NC(=O)[C@H](CCC(N)=O)NC(=O)[C@@H](NC(=O)[C@H](Cc1ccccc1)NC(=O)[C@H](CCC(=O)O)NC(=O)[C@H](CCCNC(=N)N)NC(=O)[C@H](C)NC(=O)[C@H](CCCNC(=N)N)NC(=O)[C@H](CCCNC(=N)N)NC(=O)[C@H](CC(C)C)NC(=O)[C@H](CC(=O)O)NC(=O)[C@H](CC(C)C)NC(=O)[C@H](Cc1ccc(O)cc1)NC(=O)[C@H](CCCCN)NC(=O)[C@H](CO)NC(=O)[C@H](CC(C)C)NC(=O)[C@H](CC(=O)O)NC(=O)[C@H](CO)NC(=O)[C@@H](NC(=O)[C@H](Cc1ccccc1)NC(=O)[C@@H](NC(=O)CNC(=O)[C@H](CCC(N)=O)NC(=O)C(C)(C)NC(=O)[C@@H](N)Cc1c[nH]cn1)[C@@H](C)O)[C@@H](C)O)C(C)C)C(=O)N[C@@H](CC(N)=O)C(=O)N[C@@H](CCCCNC(=O)CC[C@H](NC(=O)CC[C@H](NC(=O)COCCOCCNC(=O)COCCOCCNC(=O)CC[C@H](NC(=O)CCCCCCCCCCCCCCCCC(=O)O)C(=O)O)C(=O)O)C(=O)O)C(N)=O, also called Chem. 22; Chem 22)
 | 2.5 | 37 | 6 | H[Ac4c]QGTFTSDVSKYLESRRAREFVQWLIK([γGlu-γGlu-AEEA-AEEA-γGlu-γGlu-C18 diacid])T-NH2 (N-terminus assumed; SMILES CC[C@H](C)[C@H](NC(=O)[C@H](CC(C)C)NC(=O)[C@H](Cc1c[nH]c2ccccc12)NC(=O)[C@H](CCC(N)=O)NC(=O)[C@@H](NC(=O)[C@H](Cc1ccccc1)NC(=O)[C@H](CCC(=O)O)NC(=O)[C@H](CCCNC(=N)N)NC(=O)[C@H](C)NC(=O)[C@H](CCCNC(=N)N)NC(=O)[C@H](CCCNC(=N)N)NC(=O)[C@H](CO)NC(=O)[C@H](CCC(=O)O)NC(=O)[C@H](CC(C)C)NC(=O)[C@H](Cc1ccc(O)cc1)NC(=O)[C@H](CCCCN)NC(=O)[C@H](CO)NC(=O)[C@@H](NC(=O)[C@H](CC(=O)O)NC(=O)[C@H](CO)NC(=O)[C@@H](NC(=O)[C@H](Cc1ccccc1)NC(=O)[C@@H](NC(=O)CNC(=O)[C@H](CCC(N)=O)NC(=O)C1(NC(=O)[C@@H](N)Cc2c[nH]cn2)CCC1)[C@@H](C)O)[C@@H](C)O)C(C)C)C(C)C)C(=O)N[C@@H](CCCCNC(=O)CC[C@H](NC(=O)CC[C@H](NC(=O)COCCOCCNC(=O)COCCOCCNC(=O)CC[C@H](NC(=O)CC[C@H](NC(=O)CCCCCCCCCCCCCCCCC(=O)O)C(=O)O)C(=O)O)C(=O)O)C(=O)O)C(=O)N[C@H](C(N)=O)[C@@H](C)O, also called Chem. 19; Chem 19)
1.1 | 144 |  |  | H[Aib]QGTFTSDLSKYLDLRRARDFVAWLISK([γGlu-γGlu-AEEA-AEEA-γGlu-C18 diacid])-NH2 (N-terminus assumed; SMILES CC[C@H](C)[C@H](NC(=O)[C@H](CC(C)C)NC(=O)[C@H](Cc1c[nH]c2ccccc12)NC(=O)[C@H](C)NC(=O)[C@@H](NC(=O)[C@H](Cc1ccccc1)NC(=O)[C@H](CC(=O)O)NC(=O)[C@H](CCCNC(=N)N)NC(=O)[C@H](C)NC(=O)[C@H](CCCNC(=N)N)NC(=O)[C@H](CCCNC(=N)N)NC(=O)[C@H](CC(C)C)NC(=O)[C@H](CC(=O)O)NC(=O)[C@H](CC(C)C)NC(=O)[C@H](Cc1ccc(O)cc1)NC(=O)[C@H](CCCCN)NC(=O)[C@H](CO)NC(=O)[C@H](CC(C)C)NC(=O)[C@H](CC(=O)O)NC(=O)[C@H](CO)NC(=O)[C@@H](NC(=O)[C@H](Cc1ccccc1)NC(=O)[C@@H](NC(=O)CNC(=O)[C@H](CCC(N)=O)NC(=O)C(C)(C)NC(=O)[C@@H](N)Cc1c[nH]cn1)[C@@H](C)O)[C@@H](C)O)C(C)C)C(=O)N[C@@H](CO)C(=O)N[C@@H](CCCCNC(=O)CC[C@H](NC(=O)CC[C@H](NC(=O)COCCOCCNC(=O)COCCOCCNC(=O)CC[C@H](NC(=O)CCCCCCCCCCCCCCCCC(=O)O)C(=O)O)C(=O)O)C(=O)O)C(N)=O)
